Measured values reported in US20060073152A1.

How the values were obtained:
Assay in all cases: peptide competition for albumin
[1] = molecular target: T1, rabbit serum albumin (rabbit), P49065
T1 chain: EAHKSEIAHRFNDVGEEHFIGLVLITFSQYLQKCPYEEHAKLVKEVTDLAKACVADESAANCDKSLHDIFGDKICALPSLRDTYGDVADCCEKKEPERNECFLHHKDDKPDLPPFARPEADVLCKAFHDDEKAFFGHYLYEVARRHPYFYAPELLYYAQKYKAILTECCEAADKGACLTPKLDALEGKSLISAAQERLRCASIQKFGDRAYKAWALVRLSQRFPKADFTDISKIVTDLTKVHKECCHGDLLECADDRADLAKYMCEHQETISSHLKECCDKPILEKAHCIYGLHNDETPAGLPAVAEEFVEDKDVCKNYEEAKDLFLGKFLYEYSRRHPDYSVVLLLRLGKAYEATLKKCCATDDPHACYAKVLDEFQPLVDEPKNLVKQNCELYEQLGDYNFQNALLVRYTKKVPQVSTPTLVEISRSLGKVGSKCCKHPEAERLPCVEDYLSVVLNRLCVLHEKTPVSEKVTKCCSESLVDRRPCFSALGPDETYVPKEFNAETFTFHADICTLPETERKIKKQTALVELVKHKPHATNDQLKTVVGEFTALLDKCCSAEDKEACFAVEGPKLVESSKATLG

[2] = molecular target: mouse serum albumin (mouse), P07724
Sequence of mouse serum albumin (mouse), P07724 (P07724 25-608 limits assumed): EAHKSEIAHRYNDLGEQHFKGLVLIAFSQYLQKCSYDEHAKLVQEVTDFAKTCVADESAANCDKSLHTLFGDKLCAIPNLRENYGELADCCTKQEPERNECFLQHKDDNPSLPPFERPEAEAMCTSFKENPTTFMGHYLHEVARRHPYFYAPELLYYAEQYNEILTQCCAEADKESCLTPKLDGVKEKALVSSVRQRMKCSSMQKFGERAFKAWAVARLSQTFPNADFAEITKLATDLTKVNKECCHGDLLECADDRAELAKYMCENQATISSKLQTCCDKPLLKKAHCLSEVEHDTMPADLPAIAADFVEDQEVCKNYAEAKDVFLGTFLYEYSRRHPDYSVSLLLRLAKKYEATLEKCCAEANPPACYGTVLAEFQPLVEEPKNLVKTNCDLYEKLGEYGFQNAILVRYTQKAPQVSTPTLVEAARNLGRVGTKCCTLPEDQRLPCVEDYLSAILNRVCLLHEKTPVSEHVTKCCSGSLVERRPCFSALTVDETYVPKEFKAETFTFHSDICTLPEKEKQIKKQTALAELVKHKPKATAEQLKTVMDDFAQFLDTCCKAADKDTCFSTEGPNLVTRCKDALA

[3] = molecular target: T2, rat serum albumin (rat), P02770
T2 chain: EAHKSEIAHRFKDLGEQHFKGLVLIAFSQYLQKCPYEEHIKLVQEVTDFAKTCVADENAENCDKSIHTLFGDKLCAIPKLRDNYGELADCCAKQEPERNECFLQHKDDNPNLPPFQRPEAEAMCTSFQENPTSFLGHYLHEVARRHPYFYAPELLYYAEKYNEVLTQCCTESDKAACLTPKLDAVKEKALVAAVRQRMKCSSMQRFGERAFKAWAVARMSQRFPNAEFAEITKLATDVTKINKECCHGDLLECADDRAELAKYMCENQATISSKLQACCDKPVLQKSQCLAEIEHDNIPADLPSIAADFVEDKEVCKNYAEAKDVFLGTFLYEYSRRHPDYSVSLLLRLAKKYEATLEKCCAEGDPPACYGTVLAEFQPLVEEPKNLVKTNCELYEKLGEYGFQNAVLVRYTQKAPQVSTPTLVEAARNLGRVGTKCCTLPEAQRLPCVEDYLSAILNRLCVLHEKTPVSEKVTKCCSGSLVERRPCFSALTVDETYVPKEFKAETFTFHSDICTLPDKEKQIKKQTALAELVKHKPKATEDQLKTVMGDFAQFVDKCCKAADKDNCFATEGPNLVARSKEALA

**Q.** RLMEDICLARWGCLWEDD (modifications not checked) [SA13] was tested. Which IC50 [1] did it give?
**A.** 3200 nM

**Q.** And the IC50 [2]?
**A.** 188 nM

**Q.** What about the IC50 [3] of the same binder?
**A.** 2480 nM
